Assay results: the DeepSol protein solubility set

Test: soluble on expression in E. coli; label from the status in PepcDB or PDB records

| Sequence | soluble on expression in E. coli |
| --- | --- |
| MSRSSVTGKEFVIRYVFNDVSNMNENDMRISTVEEYFNVPWIFQIQRNNGNLGIYLRCRKLKGQEMWSMFTELELKLISVYSDTRDQKCKTDMCFGHDSGKFYSSYGWSEFISWNELETSFMDAGSITVEARVIINKSIGFYTPKLMNFDEKKKEYSDIVVLVDGQRFYLLKKFLAFHSTFFESLFLGGFYEAKLTEVPLYDIDVDDFQKFLEVLYGFPVINDNTVEGILLLADMYQTPLVSELCEDFLIQTTGKTYKKKLQMAIKFNLENLKQFCISMIKSPFDLRSMIPSDISSIDHSTLAALFTKSLTLMK | not soluble |
| MGSDKIHHHHHHMKILYISNFNLPDFQNDMIFHGLRSVFGNDCIDSNEAWYMYEDFRNYWNVRVPENGMSYGRGFTLYGKLPKIDIDRKNIYEKIKDKYFDKIVYGSITRNNMFLDEVISIYEKNNIIMIDGEDNTEINQNFFGKGIYFKRELIYEPTSYLKPIGFCIPNETIVNNISIKEKDYGHVIPGDPETYIYTDEVSYFEDYRKSYFGVTMKKGGWDCLRHYEILMNGCIPYFLNLEQCPKYTMTHFPKNIILDVINKINTESNILNFYNEYVDILLEYTRNKLTTRKVIESIL | not soluble |
| MRKMMPMNPKQLKKLMKQLDMRQLEGVKEVIIKMEDREIIIKEPIVTVIKAMGEKMYQIAGGSEEEKAIINISEEDIKLVMEQAGVDYETAKKALEETGGDLAEAILRLTDSGVE | soluble |
| MGSDKIHHHHHHMPVVDAAWEEWLSSNVARGCSPDSMIDAMVQAGFATDAARVAVHKTFGQNPANPAFAAAAATEAALAKAAPQTYQYDDPPVARGNLIRAYDRDVRVVMRCERPQVIVFADVLSPDECAEMIERSRHRLKRSTTVNPATGKEDVIRNRTSEGIWYQRGEDPFIERMDRRISSLMNWPVENGEGLQILHYGTTGEYRPHFDYFPPDQPGSAVHTAQGGQRVATLVIYLNDVPDGGETIFPEAGMSVAASQGGAVYFRYMNDRRQLDPLTLHGGAPVLAGDKWIMTKWMRERAYG | not soluble |
| HHHHHHTDPALRAAQQTPLYEQHTLCGARMVDFHGWMMPLHYGSQIDEHHAVRTDAGMFDVSHMTIVDLRGSRTREFLRYLLANDVAKLTKSGKALYSGMLNASGGVIDDLIVYYFTEDFFRLVVNSATREKDLSWITQHAEPFGIEITVRDDLSMIAVQGPNAQAKAATLFNDAQRQAVEGMKPFFGVQAGDLFIATTGYTGEAGYEIALPNEKAADFWRALVEAGVKPCGLGARDTLRLEAGMNLYGQEMDETISPLAANMGWTIAWEPADRDFIGREALEVQREHGTEKLVGLVMTEKGVLRNELPVRFTDAQGNQHEGIITSGTFSPTLGYSIALARVPEGIGETAIVQIRNREMPVKVTKPVFVRNGKAVAGLCGR | soluble |
| MSLRHMQIETVNLPLARPMAAENGTRHAVTVIRVALEEKGFIGQGECTPAAHYGESADSVCRQLSAIREAIENGLTIEQLQQNLSPGAARNALDCALWRLNTALEKQTLWQRVGIHPPTSVVCAQTLALDSVEKMATAASNAVSHGALLLKIKLDRELILEKVAAIRAAAPNARLIIDARASWSGLDLHSLSTALLPYQVAMIEQPLPVGKDEDLQRFAHPIPICADESCRHSGDIVGLRRRYDMINIKLDKCGGLTEALAMVREAHFHGLRIMVGCTLGSSMAMEAALPVAADAEHVDLDGPIWLAADSSPYLTYNLGRIWLEGHHHHHH | soluble |
| MFKQFIEDAKSIAERDPAATSVLEVIFLYSGFHAVCLHRIAHWFYKRNMRFIARFISQLNRFLTGVEIHPGAKIGKGLFIDHGMGVVIGETAEVGDNCTIYHNVTLGGTGKDKGKRHPTIGNNVLISTGAKVLGPFKVGDNSRIGANAVVLNEVEPNTTVVGVPGRAVKRGNQKIVPSIELDQIHIPDPVAQELCRIKQRLESLEKELMEMRRASQGSNVQEPVPQEKSCEEECKLEMGKEIADNETL | not soluble |
| MRYPIMNNFFKIHDNLLRNLSPSLRRGLMDEIDWNDRLIGIKGARGMGKTTFLLDYARENFGIGNRKCLYINLNQLYFTTESLVNFAGEFVKQGGEVLLLDQVFKYPNWSIELRQCMELYPDLRIVFTGSTVMRLKEENPELNGLVTSYVLNGFSFREFLNLKTGLSLQPYSFDEIVSNHEQIAPRILEQVNPLDWFQDYLHHGYYPIFLEDKNYSESLLKTLNMTLEVDVLFIRQIEQRFLHKLRKLLYLLGQRAPGSLNISSIAKEVDTSRTTITNYLKYLSEARLIKELHREEETGAKKPAMIYLDNTNVGYVIQPEPLNYIDVLKTFFLNQVKSRNEVCLGSRSQIAFCVNRQYQFCIDEKMSRRYRPDRYYAIQNMRSGTRNMIPLWLFGFLY | not soluble |
| MEKDHSSLFYYDQYSKFSRSSQGCRSLNKFSRFNNFRTSACFFDASKPKSDVQPFKKIRYSSEHGCLTMSFDSPSSCPSTSFLCDLSQNLVRGNAHIPKFYTRDLISTIGSRDHYSVDLIPKFGENTSIMKDFKDWGTDLSLQM | not soluble |
| MGSDKIHHHHHHMSEVYRQNPKVEAIILAGSVARKLEDEHSDIELHILWSMPPEDEDRKGPINYIGGTILSYHPYEEEEWSETYLTKEGIKLEISNFLTETVEKVIEDVVVQYDISYEKQCIVSSIHDGASLYGEEKVHELKDRVLAYPEDLAKRMISENLWLSNRWHNREALLKRKDWLMLYDVICEAQRNIFGVLFGLNKMYVHHPAFKWMPYNVERMIIKPENLYERMTNTLIGKPEYSIQELGVLIEELLQLVEHHAPELHIAEQQKRIQYAK | not soluble |
| MPKKVLIFCDPGIDDTMALLLAFFIDEIEIVGIVADYGNVPKKMAVENAHFFNNETKNRNIKIFGGSERPLTGAPPAFFTDVHGKQGLGPIIPKVNVTNGEMENFFEVIPLIEQYKDELIIVSLGRLTSLAILFIMCKQLMKQIKSYYVMGGAFLHPGNVTPISEANFYGDPTAANIVLQSTANMYIYPLNVTQYSIITPEMAEYIEAKGKAPLVKTLFDHYYYGYYKDALPHLKGSPFHDTIPILALLDNSMFTYHKSPIVVMTESYAQGASIGEFRSLGESKPFIDWPSHQIAIDFDYNRFFKHFMSLMTGEQF | not soluble |
| SLARELMRTQKEIFALILDFAKRTDSIRAVTLEGSRANPNIKQDKFCDYDISFFLNAKNLESFKNNEEWLKIFGNILMLQKPESMELYPPDLREGWFSFLVLFDDGVRIDLSLIPLADIEWYKDNERLMRVLLDKDNQFMPINEPSDSAFFIKPLTKQSFLDCCNELYWLYVCTHKDILRGELLLANAHLAMMREGLLILLSWRVALRQNNFAFSLGKEYKFLPHFLEPKERKTLYKCYKLGDLKQAQKTLKIMEKFFAKNARELIKVHFKDLHTLPYAKVAKQYVRILKHKIV | soluble |
| MSLKPVMIIQFSASEGPGHFGDFLAGEHIPFQVLRMDRSDPLPAEIRDCSGLAMMGGPMSANDDLPWMPTLLALIRDAVAQRVPVIGHCLGGQLLAKAMGGEVTDSPHAEIGWVRAWPQHVPQALEWLGTWDELELFEWHYQTFSIPPGAVHILRSEHCANQAYVLDDLHIGFQCHIEMQAHMVREWCSISPEELKGGAEADEGHHHHHH | not soluble |
| MALNDFHVSEPYTLGIELEMQVINPPGYDLSQDSSTLIDAVKPQLTAGEIKHDITESMLEMATGVCRDIDQAAAQLSAMQHVILQAASEHHLGICGGGTHPFQKWQRQEVCDNERYQRTLENFGYLIQQATVFGQHVHVGCANGDDAIYLLHGLSHFVPHFIALSAASPYMQGADTRFACARLNIFSAFPDNGPMPWVSNWQEFAGLFRRLSYTTMIDSIKDLHWDIRPSPAFGTVEVRVMDTPLTLDHAINMAGLIQATAHWLLTERPFKPQEQDYLLYKFNRFQACRYGLEGVLTDAYTGDRRRLADDTLRLLDNVTPSARKLGADSAIDALRLQVKKGGNEAQYMREFIADGGSLIGLVQKHCEIWAGQ | soluble |
| MANVYTAEATATGGRAGTTRSSDDRLNLDLSVPAEMGGDGGPGTNPEQLFAAGYAACFQGALGVVSRRNKIDVPADSTITARVGLQKAGLAFALDVELEGHFPGLSREQAEGLMHAAHEVCPYSAATRNNVDVRLKVRE | soluble |
| MLSHMVLTRQDIGRAASYYEDGADDYYAKDGDASEWQGKGAEELGLSGEVDSKRFRELLAGNIGEGHRIMRSATRQDSKERIGLDLTFSAPKSVSLQALVAGDAEIIKAHDRAVARTLEQAEARAQARQKIQGKTRIETTGNLVIGKFRHETSRERDPQLHTHAVILNMTKRSDGQWRALKNDEIVKATRYLGAVYNAELAHELQKLGYQLRYGKDGNFDLAHIDRQQIEGFSKRTEQIAEWYAARGLDPNSVSLEQKQAAKVLSRAKKTSVDREALRAEWQATAKELGIDFS | soluble |
| MSTPRQILAAIFDMDGLLIDSEPLWDRAELDVMASLGVDISRRNELPDTLGLRIDMVVDLWYARQPWNGPSRQEVVERVIARAISLVEETRPLLPGVREAVALCKEQGLLVGLASASPLHMLEKVLTMFDLRDSFDALASAEKLPYSKPHPQVYLDCAAKLGVDPLTCVALEDSVNGMIASKAARMRSIVVPAPEAQNDPRFVLSNVKLSSLTELTAKDLLG | soluble |
| MKTETPSVKIVAITADEAGQRIDNFLRTQLKGVPKSMIYRILRKGEVRVNKKRIKPEYKLEAGDEVRIPPVRVAEREEEAVSPHLQKVAALADVILYEDDHILVLNKPSGTAVHGGSGLSFGVIEGLRALRPEARFLELVHRLDRDTSGVLLVAKKRSALRSLHEQLREKGMQKDYLALVRGQWQSHVKSVQAPLLKNILQSGERIVRVSQEGKPSETRFKVEERYAFATLVRCSPVTGRTHQIRVHTQYAGHPIAFDDRYGDREFDRQLTEAGTGLNRLFLHAAALKFTHPGTGEVMRIEAPMDEGLKRCLQKLRNAR | soluble |
| MFKGIVQGAGIIKKISKNDDTQRHGITFPKDILESVEKGTVMLVNGCSLTVVRISGDVVYFDIDQAINTTTFRELEVGNKVNLEVRPEFGSLLGKGALTGNIKGVATVDNITEEEDRLKVYIKIPKDLIENILSEDHIGINGVSHSIEEISDDIIFINYPKNLSITTNLGTLEKGSDVNVETLNVSNEWD | soluble |
| MKKLNFSELNWINTPENFSITENELVIHTSPDTDFWRGTYYGLEYNNAPGIVMRSEERFWTLKSKVAFESNMFFDQCGMLIYIDDNNWMKSGIEYQSNGYQQLFSVVTNNGFSDWAMTNLDRVTQTMYYRLSRRGNDFLLEHSADGKIFNMMRMFHMFQAYTTVQFGFFASSPGDSSFAAHFSEIEWTECLWDAHTSSRFLEHHHHHH | not soluble |
| MGHHHHHHSHMEKCSVGGLELTEQTPALLGNMAMATSLMDIGDSFGHPACPLVSRSRNSPVEDDDDDDDVVFIESIQPPSISAPAIADQRNFIFASSKNEKPQGNYSVIPPSSRDLASQKGNISETIVIDDEEDIETNGGAEKKSSCFIEWGLPGTKNKTNDLDFSTSSLSRSKVNAGMGNSGITTELTLKYIITNVTTLETGISSVNAGQDVNIIITYKTSL | not soluble |
| MGSDKIHHHHHHMKSPTPALMLQGTSSNAGKSILTAAFCRILLQDGYRVAPFKAQNMALNSHVTADGLELGRAQAVQAAACRLDVDVRMNPVLLKPNSDTGSQVVVMGRPVGNMRVREYMAYKPVAFDAARAAYDSLAADVDVMVLEGAGSPAEVNLKAHDIVNMAMARHAEAKVLLVGDIDRGGVFASLVGTMELLDPWERDLVAGFVLNKFRGDATLLSPAYDVVTGRTGKPFLGVVPWLHDLGLPDEDSVSFRETLAGRAPDVPAGGGMLDIVLVDLPHISNFTDLDALRREPDVAVRVVRSPEQLGSPDAIILPGSKNTLGDLAALRSRGMAEALCALRSAEGGHLGPVIVGICGGFQMMGRFLADPQGVESDHACTEAGLGLLPVTTEMGSAKVLRRTSAKTVSGWCGAGVAAGLMPGTGGGHGGAEVCPGEGYAVHGYEIHHGVTTPDAGGGAVLVCLHESDGSPAGWTTPDGQVWGTYLHGVFDADGFRRGWLDALRVRRGLEPVGRVVARYDLDPALDRLADVVREAVDMGHIYSVLGLSPKGRRQT | not soluble |
